Data on 27 sequences can be found in the DeepSol protein solubility set.

The data set is described as follows: soluble on expression in E. coli; label from the status in PepcDB or PDB records.
For the sequence “GHHHHHHAIAENLYFQSKDVPGFLQQSQSSGPGQPAVWHRLEELYTKKLWHQLTLQVLDFVQDPCFAQGDGLIKLYENFISEFEHRVNPLSLVEIILHVVRQMTDPNVALTFLEKTREKVKSSDEAVILCKTAIGALKLNIGDLQVTKETIEDVEEMLNNLPGVTSVHSRFYDLSSKYYQTIGNHASYYKDALRFLGCVDIKDLPVSEQQERAFTLGLAGLLGEGVFNFGELLMHPVLESLRNTDRQWLIDTLYAFNSGNVERFQTLKTAWGQQPDLAANEAQLLRKIQLLCLMEMTFTRPANHRQLTFEEIAKSAKITVNEVELLVMKALSVGLVKGSIDEVDKRVHMTWVQPRVLDLQQIKGMKDRLEFWCTDVKSMEMLVEHQAHDILT”, the “soluble on expression in E. coli” value is given as “soluble”. On to “GHHHHHHAIAENLYFQSSRNPEVLWAQRSDKVYLTVALPDAKDISVKCEPQGLFSFSALGAQGERFEFSLELYGKIMTEYRKNVGLRNIIFSIQKEERSWWTRLLKSEEKPAPYIKVDWNKWCDEDEEVNSETASDDESAFVNQDSESSDDDGLLYLPDLEKARNK”, for which the “soluble on expression in E. coli” value is listed as “soluble”. As for “GHMATIHPTAIVDEGARIGAHSRIWHWVHICGGAEIGEGCSLGQNVFVGNRVRIGNRVKIQNNVSVYDNVFLEDDVFCGPSMVFTNVYNPRAAIERKSEYRDTIVRQGATLGANCTVVCGATIGRYAFVGAGAVVNKDVPDFALVVGVPARQIGWMSRHGEQLDLPLRGNAEATCPHTGERYILTDGVCRLA”, the “soluble on expression in E. coli” value is given as “soluble”. For “GHMENKVINFKKIIDSRGSLVAIEENKNIPFSIKRVYYIFDTKGEEPRGFHANKKLEQVLVCLNGSCRVILDDGNIIQEITLDSPAVGLYVGPAVWHEMHDFSSDCVMMVLASDYYDETDYIRQYDNFKKYIAKINLEKEG”, the “soluble on expression in E. coli” value is recorded as “soluble”.

“GHMSTPLTLIATITAAPGHAEALERELRALVAPSRAEAGCLQYDLHQDRHDSHLFYMIEQWRDDAALERHQNTEHFLRFSRGNEALLQNVKIDQLYRLA”: the “soluble on expression in E. coli” value is “soluble”. With “GIPRNSRVDSDDFLWFEGIAFPTMGFRSETLRKVRDEFVIRDEDVIILTYPKSGTNWLAEILCLMHSKGDAKWIQSVPIWERSPWVESEIGYTALSETESPRLFSSHLPIQLFPKSFFSSKAKVIYLMRNPRDVLVSGYFFWKNMKFLKKPKSWEEYFEWFCQGTVLYGSWFDHIHGWMPMREEKNFLLLSYEELKQDTGRTIEKICQFLGKTLEPEELNLILKNSSFQSMKENKMSNYSLLSVDYVVDKTQLLRKGVSGDWKNHFTVAQAEDFDKLFQEKMADLPRELFPWE”, the “soluble on expression in E. coli” value is “soluble”.

For the sequence “GKDWMISAKGTFTFARNILDEVFETEATFNNPNRRRTGRPDGTMFGYNALGYFTYDDFNPDGSLKAGIATQPWGQVYPGDLRYEDLSGPNGVPDGKIDEHDQTVIGFSNWAPEIIFGLAPTVQWKNFDLNALIQGATRTSISLGETLVMPFFDSGSATKLQFSDHWTPDNTNAPYPRLTSEVTVNNHRQPSSWWVRDATYIRLKSIEIGYTLPRSALNFIGISSARVYASGQNLWTWTPFMKELIDPEAKSANGKYYMQQAVYAFGLNITF”, the “soluble on expression in E. coli” value was “not soluble”.

Take “GKGLGRRVLSINEIVGYDAVNQAFNFMDIFKWDPATDTFKFTGKNNSYLLEHKIAPRMGIPETQVRKIYSELDRRSKILRKIHQANITNFYDLFTTLIQLEEAGVIS”: the “soluble on expression in E. coli” value is reported as “not soluble”.

In the case of “GKKTRSVKSCVGKEFCRFGTQYTTRLGIRLEKTFEYIDTPHKFKMGVSGCPRSCVESGVKDFGVISVENGYQIFIGGNGGTDVTVGKLLTTVETEDEVIQLCGALMQYYRETGVYAERTAPWLERMGFENVKNVLLNQ”, the “soluble on expression in E. coli” value was “not soluble”. On to “GKNYVRSELKRLNHLCRDFRRDEVHAMDKLLFDQLCQIQLLLGTQAEVHIVSGYRSPATNKQLRSKSKGVAKKSYHMSGQAIDFRLDGVSLKKIREAAISLQAGGVGYYPKSQFIHIDTGPVRQWVGA”, for which the “soluble on expression in E. coli” value is given as “not soluble”.

As to “GLGFETMRDGIKVAAKETLLTPRFYTTDFDEMEQLFSKEINPNLDMEELNACLNEFRNDYNKVHFVRNETFKAAADKVTGETRRIFIEFLERSCTAEFSGFLLYKELARRMKASSPEVAEMFLLMSRDEARHAGFLNKALSDFNLALDLGFLTKNRTYTYFKPKFIIYATFLSEKIGYWRYITIYRHLQRNPDNQFYPLFEYFENWCQDENRHGDFLAACLKAKPELLNTFEAKLWSKFFCLSVYITMYLNDHQRTKFYESLGLNTRQFNQHVIIETNRATERLFPVVPDVEDPRFFEILNKMVDVNAKLVELSASSSPLAGLQKLPLLERMASYCLQLLFFKEKDVGSVDIAGSGASRNLAY”, the “soluble on expression in E. coli” value is “not soluble”. The entry for “GMAKIEKNAPTMEKKPELFNIMEVDGVPTLILSKEWWEKVANFQAKPDDLILATYPKSGTTWMHEILDMILNDGDVEKCKRAQTLDRHAFLELKFPHKEKPDLEFVLEMSSPQLIKTHLPSHLIPPSIWKENCKIVYVARNPKDCLVSYYHFHRMASFMPDPQNLEEFYEKFMSGKVVGGSWFDHVKGWWAAKDMHRILYLFYEDIKKDPKREIEKILKFLEKDISEEILNKIIYHTSFDVMKQNPMTNYTTLPTSIMDHSISPFMRKGMPGDWKNYFTVAQNEEFDKDYQKKMAGSTLTFRTEI” is “soluble”; for “GMAVECIKDKVTRYPERASYSDEDLVAMLDRNFTCTVSFIDGGIPYAIPMMLASEGKTIYLHGSMKSRIYGILKTGQLIAISLLEINGIVLAKEIKNNSINYVSALIFGRPYEIDDTEKKIEVFRLLTEKLVKGRWDNSIKPSYEDLNGVFVFAVKPETFSMKARTGPPHDTSTDDIWSGVLPIQHTISEAGENAPEYVKSLYGKRIFI” it is “soluble”; for “GMAYGSSNPEDLAKNFTKDLYSGDTKSVMSYIDLSEAKSDEEKTFVSDKITQVVAENAAKAKRMGGVKDIQIEEKTINKDSAKIRVLVLFNNDNNQSSNVFLAKKDRKWLVLLK” it is “soluble”.

As for “GMDDQSGDQMRPELTMPPAEAEALRMAYEEAEVILEYGSGGSTVVAAELPGKHVTSVESDRAWARMMKAWLAANPPAEGTEVNIVWTDIGPTGDWGHPVSDAKWRSYPDYPLAVWRTEGFRHPDVVLVDGRFRVGCALATAFSITRPVTLLFDDYSQRRWQHQVEEFLGAPLMIGRLAAFQVEPQPIPPGSLMQLIRTMTSP”, the “soluble on expression in E. coli” value is given as “soluble”. Under “GMEKLNFGIPEWAFEFHGHKCPYMPMGYRAGSYALKIAGLEKEKDHRTYLLSEMSPEDMNGCFNDGAQAATGCTYGKGLFSLLGYGKLALILYRPGRKAIRVHVRNSFMDELSTRASDFFRYRKQGYEPSEIPAGAIDPVLEWISSLEDEEIFEYREIDGFTFEPVKKNGAKVRCDVCGEYTYEADAKLLNGKPVCKPDYYGKK” stands “soluble”; under “GMEKLSAIKKPDINVADAWEQYWNKTLVNSTPVLWDANVERAVVVDLPRFELLFNPELPLIDFACGNGTQTKFLSQFFPRVIGLDVSKSALEIAAKENTAANISYRLLDGLVPEQAAQIHSEIGDANIYMRTGFHHIPVEKRELLGQSLRILLGKQGAMYLIELGTGCIDFFNSLLEKYGQLPYELLLVMEHGIRPGIFTAEDIELYFPDFEILSQGEGLFQSIHKLPDGNYATPPAFWAVIKHR”, “soluble”; under “GMGLALCGAAAQAQEKPNFLIIQCDHLTQRVVGAYGQTQGCTLPIDEVASRGVIFSNAYVGCPLSQPSRAALWSGMMPHQTNVRSNSSEPVNTRLPENVPTLGSLFSESGYEAVHFGKTHDMGSLRGFKHKEPVAKPFTDPEFPVNNDSFLDVGTCEDAVAYLSNPPKEPFICIADFQNPHNICGFIGENAGVHTDRPISGPLPELPDNFDVEDWSNIPTPVQYICCSHRRMTQAAHWNEENYRHYIAAFQHYTKMVSKQVDSVLKALYSTPAGRNTIVVIMADHGDGMASHRMVTKHISFYDEMTNVPFIFAGPGIKQQKKPVDHLLTQPTLDLLPTLCDLAGIAVPAEKAGISLAPTLRGEKQKKSHPYVVSEWHSEYEYVTTPGRMVRGPRYKYTHYLEGNGEELYDMKKDPGERKNLAKDPKYSKILAEHRALLDDYITRSKDDYRSLKVDADPRCRNHTPGYPSHEGPGAREILKRK”, “soluble”. Turning to “GMLESVRKEWLEIMDRELLEKARSLINANYISTTLSTVDRNYEVNIAVISVLEMIGDDTIICARFGADKTYANLKETGKGVFMVLLTDNDKSKDGIRVYVELSADLQEGEYFDRIKKRLDNTTYKNFPLKNCLVFKIVKILPVSLLRK”, the “soluble on expression in E. coli” value is reported as “soluble”. Consider “GMNQAMDTKQIAPFTLALPEGEALPLVCDSPHSGTFYPADFGAVVAPERLRGGEDTHVDALWEAVPRVGGTLLAATFPRVYIDPNRMLDDIDPAQLEGPWPTPLAPGEKTRLGYGLIWSNVDAATPIYDRKLTVAEVQRRINRYYRPYHAALTEAVEGAYQRFGAVWHLNLHSMPNNAYERLKIQSPRPLADFVLGDRDGTTCEPGLVDLVERELREKGYTVARNDPYKGVQLIAQIGRPAERRNSLQIEIRRPLYMEEGTRERNEGFATLQRDLTLLTLRIAEYVRRGV”, for which the “soluble on expression in E. coli” value is given as “soluble”. Take “GMPDSPTLLDLFAEDIGHANQLLQLVDEEFQALERRELPVLQQLLGAKQPLMQQLERNGRARAEILREAGVSLDREGLARYARERADGAELLARGDELGELLERCQQANLRNGRIIRANQASTGSLLNILRGQDAPSLYDSRGGTASSSRQRPLSQA”: the “soluble on expression in E. coli” value is on record as “soluble”. For “GMPKLDLDSIERRIGSVYPGRLNAAMDGRSSLRLGDAGGLSQFGVNLVRLEPGAKSSLRHYHMEQDEFVMVTEGALVLVDDQGEHPMVPGDCAAFPAGDPNGHQFVNRTDAPATFLVVGTRTPTETAYYSDMDMMVKQDASGFAFTRKDGSPLTADQIGDDNE”, the “soluble on expression in E. coli” value is “soluble”. Under “GMPQTLKPDTPAGTPAAGAVAFRRQVLPQDALLVRRVVESTGFFTPEEADVAQELVDEHLMHGAACGYHFVFATEDDDMAGYACYGPTPATEGTYDLYWIAVAPHRQHSGLGRALLAEVVHDVRLTGGRLLFAETSGIRKYAPTRRFYERAGFSAEAVLKAFYRAGDDKIIYRLEVA” stands “soluble”; under “GMSEAPHLTFDLDTPGVSTGHLVVPKGADCEALSLPVFSCNRGEGPSLLITGGNHGNELQGPILARRLVKWLPEAQRCGRIIIVPEINPLAVQAWTRNTPIDGKNLNRVFPGRSDGSVSERIADAISRLLLPVVDTVLDLHSFGPTWDCAPSIISHPIADIDQMTKTVSISKAFKLPVTLLWEHNETDGMFDTLVHRQGKTFICTEFGGGVVSAEALTIYEAGVRNGLIALGLVKGKAEYPTFRQQKTGQTLETTSSDQLKSPSPGIFEPRCSVMDEVEQGDVVGVLHPMGSLSAASIDIRAQSKSTVFAIRSAMYVQGNEEVAILARPLAR”, “soluble”. With “GMSRSPFQTFVWRSEIFECQSTDIQRFYSLLAIETERLGLGSKILGQAGHHPLYLLQSPGQKAGLPNLLISAGFHGEESAGPWGLLHFLSQLDGELFKRVNLSVLPLVNPTGFAKGHRFNELGENPNRGFFIENGKAKPGADTSAEGRILLEHAHLLQVASRDGILTCHEDVLMTDTYVYTFEPSQAPGRFSHSLRDALGQYFPIAADGDVDNCPVRSGVIFNHFDTSFESFLVRSGARVGCCSETPGQQPLDQRILANAAAMNTFVNMLAPELS”, the “soluble on expression in E. coli” value is “soluble”. “GMSTAAESEIRQLIERWMQAVRDRDIPGIIAPYADDIVAFDAIQALQFKGKSAYTAHWEMCMGMCTGPMVFELAQLTVHAAGDLALAHWLNRCGPGDDESQCGFMRATVGYRRQGGQWQVIHEHWSAPFDMETQKALFDLKP”: the “soluble on expression in E. coli” value is “soluble”.

For the sequence “GMTESDRDQEASMREVVIVKSTPQRGKFNAFAELVGKLVSETRDFPGCLGAYLMLAPERNEQVVMHIWETPDALEAYLTWRADRGDFLEINEYLEVEQDFKTYQLA”, the “soluble on expression in E. coli” value is “soluble”.
